Assay [1] has as its target Artificial Cell Surface (ACS): biotinylated cell surface proteins from mononuclear cells coupled to streptavidin-sepharose. The assay can be described thus: adsorption on ACS column, MALDI-TOF MS.
Assay [2] has as its target T1, His-tagged P3028 peptide (PGE73) (human).
T1 construct: also called His-tag-P3028; not shown: His-tag
T1 peptide: VFDEFKPLVEEPQNLIK
The assay can be described thus: PEPSCAN ELISA; peptide on card, His-tagged P3028 in solution. Background: In an ELISA, binding on a coated surface is turned into a signal by an enzyme label.

For assay [3], the target named is Artificial Cell Surface (ACS): biotinylated cell surface proteins of PBMCs bound to streptavidin columns. The assay can be described thus: trypsin-digested dHSA adsorbed on ACS column, MALDI-TOF ms.

This passage reports Percent Absorbed and RAMPO Score results from US20170298096A1 (CANIMGUIDE THERAPEUTICS, published 2017).

B1: Asp-N-generated albumin fragment SEQ ID NO: 219 (peptide)
peptide: DRVTKCCTESLVNRRPCFSALEV
In assay [1], B1 gave a Percent Absorbed of 87%.

B2: SEQ ID NO: 31 (peptide)
peptide: KKLDTFFVKLSLFNER
notes: P28R variant on PEPSCAN card
Molecule B2 showed an RAMPO Score in assay [2] above 500 rampo units.

B3: SEQ ID NO: 33 (peptide)
peptide: KKLDTFFVKLSLFRER
notes: P28R variant on PEPSCAN card
In the case of B3, the RAMPO Score in assay [2] is above 500 rampo units.

B4: SEQ ID NO: 32 (peptide)
peptide: KKLDTFFVKLSLFPER
notes: P28R variant on PEPSCAN card
B4: the RAMPO Score in assay [2] is above 500 rampo units.

B5: SEQ ID NO: 3 (peptide)
peptide: RKLDTFFVKLSLFTER
notes: P28R variant on PEPSCAN card
On to B5, for which, in assay [2], the RAMPO Score is above 500 rampo units.

B6: albumin fragment … (peptide)
peptide: KVPQVSTPTLVEVSR
B6: the Percent Absorbed in assay [3] turned out to be 64%.

B7: Asp-N-generated albumin fragment SEQ ID NO: 229 (peptide)
peptide: RVTKCCTESLVNRRPCFSALEVDETYVPKEFNAETFTFHA
B7 yielded a Percent Absorbed in assay [1] of 100%.

B8: trypsin-generated albumin fragment SEQ ID NO: 215 … (peptide)
peptide: LDELRDEGK
In assay [1], B8 yielded a Percent Absorbed of 2%.

B9: SEQ ID NO: 9 (peptide)
peptide: KKLDTFMVKLSLFTER
notes: P28R variant on PEPSCAN card
With B9, the RAMPO Score in assay [2] is above 500 rampo units.

B10: SEQ ID NO: 13 (peptide)
peptide: KKLDTFLVKLSLFTER
notes: P28R variant on PEPSCAN card
Regarding B10, the RAMPO Score in assay [2] is above 500 rampo units.

B11: SEQ ID NO: 12 (peptide)
peptide: KKLDTFTVKLSLFTER
notes: P28R variant on PEPSCAN card
In assay [2], B11 displayed an RAMPO Score above 500 rampo units.

B12: SEQ ID NO: 11 (peptide)
peptide: KKLDTFVVKLSLFTER
notes: P28R variant on PEPSCAN card
Turning to B12, the RAMPO Score in assay [2] is above 500 rampo units.

B13: SEQ ID NO: 10 (peptide)
peptide: KKLDTFSVKLSLFTER
notes: P28R variant on PEPSCAN card
The molecule B13 displayed an RAMPO Score in assay [2] above 500 rampo units.

B14: trypsin-generated albumin fragment SEQ ID NO: 214 … (peptide)
peptide: YICENQDSISSK
On to B14, for which the Percent Absorbed in assay [1] stood at 3%.

B15: trypsin-generated albumin fragment SEQ ID NO: 216 DDNPNLPR (peptide)
peptide: DDNPNLPR
In assay [1], B15 registered a Percent Absorbed of 1%.

B16: albumin fragment KYLYEIAR (peptide)
peptide: KYLYEIAR
In turn, B16 had a Percent Absorbed in assay [3] of 71%.

B17: Asp-N-generated albumin fragment SEQ ID NO: 223 (peptide)
peptide: YSVVLLLRLAKTYETTLEKCCAAADPHECYAKVF
Take B17: in assay [1], the Percent Absorbed was 100%.

B18: SEQ ID NO: 23 (peptide)
peptide: KKLDTFFVKLSLQTER
notes: P28R variant on PEPSCAN card
Consider B18, for which the RAMPO Score in assay [2] is above 500 rampo units.

B19: SEQ ID NO: 24 (peptide)
peptide: KKLDTFFVKLSLHTER
notes: P28R variant on PEPSCAN card
Molecule B19 returned an RAMPO Score in assay [2] above 500 rampo units.

B20: SEQ ID NO: 29 (peptide)
peptide: KKLDTFFVKLSLATER
notes: P28R variant on PEPSCAN card
In turn, B20 had an RAMPO Score in assay [2] above 500 rampo units.

B21: SEQ ID NO: 28 (peptide)
peptide: KKLDTFFVKLSLGTER
notes: P28R variant on PEPSCAN card
As for B21, in assay [2], the RAMPO Score was above 500 rampo units.

B22: SEQ ID NO: 25 (peptide)
peptide: KKLDTFFVKLSLNTER
notes: P28R variant on PEPSCAN card
B22 gave an RAMPO Score in assay [2] above 500 rampo units.

B23: SEQ ID NO: 27 (peptide)
peptide: KKLDTFFVKLSLSTER
notes: P28R variant on PEPSCAN card
The molecule B23 showed an RAMPO Score in assay [2] above 500 rampo units.

B24: SEQ ID NO: 26 (peptide)
peptide: KKLDTFFVKLSLPTER
notes: P28R variant on PEPSCAN card
B24: the RAMPO Score in assay [2] is above 500 rampo units.

B25: SEQ ID NO: 30 (peptide)
peptide: KKLDTFFVKLSLRTER
notes: P28R variant on PEPSCAN card
B25: the RAMPO Score in assay [2] is above 500 rampo units.

B26: albumin fragment … (peptide)
peptide: YICENQDSISSK
For B26, in assay [3], the Percent Absorbed came out at 3%.

B27: albumin fragment YLYEIAR (peptide)
peptide: YLYEIAR
In the case of B27, in assay [3], the Percent Absorbed came to 34%.

B28: albumin fragment … (peptide)
peptide: FKDLGEENFK
Molecule B28 yielded a Percent Absorbed in assay [3] of 8%.

B29: SEQ ID NO: 7 (peptide)
peptide: KKLDTAFVKLSLFTER
notes: P28R variant on PEPSCAN card
Regarding B29, the RAMPO Score in assay [2] was above 500 rampo units.

B30: SEQ ID NO: 8 (peptide)
peptide: KKLDTVFVKLSLFTER
notes: P28R variant on PEPSCAN card
In assay [2], B30 gave an RAMPO Score above 500 rampo units.

B31: Asp-N-generated albumin fragment SEQ ID NO: 220 (peptide)
peptide: DETYVPKEFNAETFTHA
B31 returned a Percent Absorbed in assay [1] of 86%.

B32: albumin fragment … (peptide)
peptide: AVMDDFAAFVEK
As for B32, the Percent Absorbed in assay [3] came to 23%.

B33: Asp-N-generated albumin fragment SEQ ID NO: 224 (peptide)
peptide: KLCTVATLRETYGEMADCCAKQEPERNECFLQHK
In assay [1], B33 displayed a Percent Absorbed of 100%.

B34: Asp-N-generated albumin fragment SEQ ID NO: 221 (peptide)
peptide: DSISSKLKECCEKPLLEKSHCIAEVEN
On to B34, for which, in assay [1], the Percent Absorbed is 65%.

B35: albumin fragment … (peptide)
peptide: VHTECCHGDLLECADDR
B35 returned a Percent Absorbed in assay [3] of 13%.

B36: Asp-N-generated albumin fragment SEQ ID NO: 230 (peptide)
peptide: YLSVVLNQLCVLHEKTPVSDRVTKCCCTESLVNRRPFSALEV
In turn, B36 yielded a Percent Absorbed in assay [1] of 37%.

B37: SEQ ID NO: 19 (peptide)
peptide: KKLDTFFVKLSQFTER
notes: P28R variant on PEPSCAN card
For the molecule B37, the RAMPO Score in assay [2] was above 500 rampo units.

B38: SEQ ID NO: 20 (peptide)
peptide: KKLDTFFVKLSVFTER
notes: P28R variant on PEPSCAN card
For the molecule B38, the RAMPO Score in assay [2] was above 500 rampo units.

B39: SEQ ID NO: 21 (peptide)
peptide: KKLDTFFVKLSMFTER
notes: P28R variant on PEPSCAN card
As to B39, the RAMPO Score in assay [2] is above 500 rampo units.

B40: albumin fragment … (peptide)
peptide: LDELRDEGK
Molecule B40 came in with a Percent Absorbed in assay [3] of 2%.

B41: albumin fragment … (peptide)
peptide: AAFTECCQAADK
Regarding B41, the Percent Absorbed in assay [3] stood at 29%.

B42: Asp-N-generated albumin fragment SEQ ID NO: 228 (peptide)
peptide: LGEENFKALVLIAFAQYLQQCPFEDHVKLVNEVTEFAKTCVA
B42: the Percent Absorbed in assay [1] is 100%.

B43: SEQ ID NO: 14 (peptide)
peptide: KKLDTFFVKVSLFTER
notes: P28R variant on PEPSCAN card
As for B43, the RAMPO Score in assay [2] is above 500 rampo units.

B44: albumin fragment NECFLQHK (peptide)
peptide: NECFLQHK
With B44, the Percent Absorbed in assay [3] came out at 22%.

B45: SEQ ID NO: 16 (peptide)
peptide: KKLDTFFVKLMLFTER
notes: P28R variant on PEPSCAN card
Molecule B45 had an RAMPO Score in assay [2] above 500 rampo units.

B46: SEQ ID NO: 18 (peptide)
peptide: KKLDTFFVKLHLFTER
notes: P28R variant on PEPSCAN card
For the molecule B46, the RAMPO Score in assay [2] is above 500 rampo units.

B47: SEQ ID NO: 17 (peptide)
peptide: KKLDTFFVKLTLFTER
notes: P28R variant on PEPSCAN card
Molecule B47 yielded an RAMPO Score in assay [2] above 500 rampo units.

B48: albumin fragment … (peptide)
peptide: CCTESLVNR
B48 yielded a Percent Absorbed in assay [3] of 26%.

B49: albumin fragment O… (peptide)
peptide: QNCELFEQLGEYK
Turning to B49, the Percent Absorbed in assay [3] came out at 20%.

B50: SEQ ID NO: 4 (peptide)
peptide: KKGDTFFVKLSLFTER
notes: P28R variant on PEPSCAN card
For the molecule B50, the RAMPO Score in assay [2] was above 500 rampo units.

B51: SEQ ID NO: 5 (peptide)
peptide: KKEDTFFVKLSLFTER
notes: P28R variant on PEPSCAN card
For B51, the RAMPO Score in assay [2] was above 500 rampo units.

B52: albumin fragment … (peptide)
peptide: CCAAADPHECYAK
In turn, B52 displayed a Percent Absorbed in assay [3] of 32%.

B53: Asp-N-generated albumin fragment SEQ ID NO: 217 (peptide)
peptide: DHVKLVNEVTEFAKTCVA
B53 gave a Percent Absorbed in assay [1] of 100%.

B54: Asp-N-generated albumin fragment SEQ ID NO: 218 (peptide)
peptide: DDKETCFAEEGKKLVAASQAALGL
Consider B54, for which the Percent Absorbed in assay [1] was found to be 100%.

B55: albumin fragment DDNPNLPR (peptide)
peptide: DDNPNLPR
Consider B55, for which, in assay [3], the Percent Absorbed turned out to be 1%.

B56: Asp-N-generated albumin fragment SEQ ID NO: 225 (peptide)
peptide: ICTLSEKERQIKKQTALVELVKHKPKATKEQLKAVM
In assay [1], B56 yielded a Percent Absorbed of 100%.

B57: Asp-N-generated albumin fragment SEQ ID NO: 226 (peptide)
peptide: LAKYICENQDSISSKLKECCEKPLLEKHCIAEVEN
B57 yielded a Percent Absorbed in assay [1] of 100%.

B58: Asp-N-generated albumin fragment SEQ ID NO: 222 (peptide)
peptide: DKLCTVATLRETYGEM
Molecule B58 came in with a Percent Absorbed in assay [1] of 65%.

B59: SEQ ID NO: 22 (peptide)
peptide: KKLDTFFVKLSLMTER
notes: P28R variant on PEPSCAN card
B59 registered an RAMPO Score in assay [2] above 500 rampo units.

B60: SEQ ID NO: 6 (peptide)
peptide: KKLDQFFVKLSLFTER
notes: P28R variant on PEPSCAN card
In the case of B60, in assay [2], the RAMPO Score was above 500 rampo units.

B61: Asp-N-generated albumin fragment SEQ ID NO: 227 (peptide)
peptide: VFLGMFLYEYARRHPDYSVVLLLRLAKTYETTLEKCCAAA
Turning to B61, the Percent Absorbed in assay [1] stood at 100%.

B62: SEQ ID NO: 15 (peptide)
peptide: KKLDTFFVKLQLFTER
notes: P28R variant on PEPSCAN card
B62 displayed an RAMPO Score in assay [2] above 500 rampo units.
